Here are results for 2 substances from PMC11316652.

The test has as its target MSLN-Fc2 (Mesothelin-antibody Fc fusion protein) (human). In words: SPR. (In general: In SPR one partner is held on a chip, and binding of the other changes the refractive index at the surface.)

“Muc16 SEA10 module, uncleaved (with the Siderocalin fusion partner) (domain or fragment)”: the Kd (as a rule, the equilibrium constant for the complex coming apart) was 899 nM.

Regarding “Muc16 SEA11 module, uncleaved (with the Siderocalin fusion partner) (domain or fragment)”, the Kd was more than 10000 nM.
